Patent US20110104157A1, “LIVER CANCER DRUG” (Chugai Seiyaku Kabushiki Kaisha, priority 2008, published 2011)
Each block holds one molecule with its values, some of them ahead of it.

Columns and labels:
[1] = thermal denaturation midpoint temperature (Tm) by DSC, Reference Example 3; assay type: physicochemical; details: Fab domain peak, sodium acetate buffer pH 6.0 with 150 mmol/L NaCl, about 1 K/minute
Experimental: The thermal denaturation midpoint temperature (Tm) was determined by the top of the denaturation peak in the thermogram (Cp versus T) obtained after heating the test sample solution at a constant programmed heating rate. The Tm value of the humanized H0L0 antibody was measured using a sample solution for DSC measurement prepared as described in the following. The antibody solution (corresponding to 50 to 100 μg) filled in a dialysis membrane was first dialyzed for 24 hours against a dialysis external solution of 20 mol/L sodium acetate buffer solution (pH 6.0) containing 150 mmol/L sodium chloride. Subsequently, the sample solution was adjusted its antibody concentration of 50 to 100 μg/mL with dialysis external solution and used as the sample solution for DSC measurement.
A suitable DSC instrument, for example, DSC-II (Calorimetry Sciences Corporation), is used for this experiment. The sample solution prepared as described above and the reference solution (dialysis external solution) were thoroughly degassed, and each of these test specimens was placed in a calorimeter cell and was thermally equilibrated at 40° C. A DSC scan was then run from 40° C. to 100° C. at a scan rate of approximately 1 K/minute. The results of this measurement are given as the top of the denaturation peak as a function of temperature.

liver cancer = liver cancer patients, phase II; cited from earlier work
[2] = Example 2 body weight loss in HepG2 xenograft mouse model; assay type: in vivo; details: Sorafenib 80 mg/kg oral, relative to tumor-associated weight loss of the model
Experimental: (§1) HepG2 cells or HuH-7 cells (5×10^5 cells) dispersed in 50% Matrigel (Becton Dickinson) were subcutaneously implanted. When the tumor volume reached 250 mm^3, the mice were divided into groups and administration commenced.
(§2) The asterisks in the figures indicate that P<0.05, based on the Dunnett's test. […] The open circles indicate the change in body weight in the group given the vehicle. […] The open squares indicate the change in body weight in the group given only Sorafenib in a dose of 80 mg/kg. […]

HuH-7 xenograft = assay: Example 2 antitumor effect, HuH-7 xenograft mouse model (hGC33 and Sorafenib); assay type: in vivo; details: hGC33 5 mg/kg i.v. weekly x3 alone or Sorafenib 80 mg/kg oral 5 times per week x3 alone
Experimental: as §1, §2

[3] = Example 5 body weight loss in HepG2 xenograft mouse model; assay type: in vivo; details: Sorafenib 80 mg/kg oral
Description: Sorafenib was synthesized according to Organic Process Research & Development (2002) 6, 777-781.
Th data is expressed by the time course of the body weight of the mice (mean±SD).

[4] = biological target: T1, soluble GPC3 core polypeptide (Homo sapiens (Human), UniProt P51654 25-563); assay: competitive ELISA, soluble GPC3 core polypeptide on plate, competitor biotinylated H0L0
T1 construct: It was immobilised on the ELISA plate at 1 ug/mL; also called glypican 3; antigen glypican 3
T1 sequence (P51654 other isoform, or with tags, fused parts or gaps limits assumed): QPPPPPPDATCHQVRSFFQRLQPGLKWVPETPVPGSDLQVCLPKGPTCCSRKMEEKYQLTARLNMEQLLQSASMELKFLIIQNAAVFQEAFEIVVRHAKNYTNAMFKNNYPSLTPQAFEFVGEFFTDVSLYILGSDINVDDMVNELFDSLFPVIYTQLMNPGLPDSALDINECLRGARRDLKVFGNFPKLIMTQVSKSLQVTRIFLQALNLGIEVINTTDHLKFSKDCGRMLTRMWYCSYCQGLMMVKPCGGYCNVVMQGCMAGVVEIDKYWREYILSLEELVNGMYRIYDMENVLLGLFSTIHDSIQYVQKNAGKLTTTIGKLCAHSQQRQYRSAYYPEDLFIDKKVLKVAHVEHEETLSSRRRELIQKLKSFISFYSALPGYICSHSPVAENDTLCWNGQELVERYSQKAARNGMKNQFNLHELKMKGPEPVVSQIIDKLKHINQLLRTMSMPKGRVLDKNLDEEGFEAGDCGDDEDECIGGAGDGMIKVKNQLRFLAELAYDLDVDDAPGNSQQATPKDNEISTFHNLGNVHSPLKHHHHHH
Experimental: 100 μL of the soluble GPC3 core polypeptide (SEQ ID NO: 36) at 1 μg/mL was added to each well of a 96-well plate. The soluble GPC3 core polypeptide was immobilized on the plate by allowing the plate to stand overnight at 4° C. The soluble GPC3 core polypeptide immobilized on the plate was washed 3 times with a washing buffer using a Skan WASHER400 (Molecular Devices); and blocked with 200 μL blocking buffer at 4° C. for at least 30 min. The blocked plate on which soluble GPC3 core polypeptide was immobilized was then washed 3 times with washing buffer using the Skan WASHER400. […] The plate was left stand for 1 hour at room temperature, then washed 5 times with washing buffer using the Skan WASHER400 (Molecular Devices). 100 μL goat anti-streptavidin alkaline phosphatase (ZYMED), diluted 20,000× with substrate buffer, was added to each well, and the resulting plate was left stand for 1 hour at room temperature, and then washed 5 times with washing buffer using the Skan WASHER400. Phosphatase Substrate (Sigma) was prepared at 1 mg/mL in the substrate buffer, added at 100 μL, per well for 1 hour. The absorbance at 405 nm of the reaction solution in each well was measured using a Benchmark Plus (BIO-RAD), with the control absorbance at 655 nm.

[5] = pI value by isoelectric electrophoresis, Reference Example 3; assay type: physicochemical
Experimental: The pI value of each antibody was calculated based on the analysis by isoelectric electrophoresis. Electrophoresis was carried out as described in the following. Using a Phast-System Cassette (Amersham Bioscience), Phast-Gel Dry IEF (Amersham Bioscience) gel was swollen for about 60 minutes with a swelling solution with the composition given below.
• 1.5 mL 10% glycerol • 100 μL Pharmalyte 8-10.5 for IEF (Amersham Bioscience)
• 1.5 mL purified water • 20 μL Pharmalyte 8-10.5 for IEF (Amersham Bioscience) • 80 μL Pharmalyte 5-8 for IEF (Amersham Bioscience)
Approximately 0.5 μg antibody was loaded on the swollen gel and isoelectric electrophoresis was run using the PhastSystem (Amersham Bioscience) controlled by the program described below. The sample was added to the gel at Step 2 of this program. A Calibration Kit for pI (Amersham Bioscience) was used for the pI markers.
After electrophoresis, the gel was fixed with 20% TCA and silver staining was then carried out using a Silver Staining Kit, Protein (Amersham Bioscience) according to the instructions provided with the kit. After staining, the isoelectric point of each antibody (test sample) was calculated based on the already known isoelectric points of the pI markers.

[6] = biological target: soluble GPC3 core polypeptide (Homo sapiens, UniProt P51654, S495A/S509A); assay: competitive ELISA of binding activity against biotinylated humanized H0L0 antibody; details: for antigen binding activity compared with humanized H0L0 antibody: Reference Example 3
Sequence of soluble GPC3 core polypeptide (Homo sapiens, UniProt P51654, S495A/S509A) (P51654 with tags, fused parts or gaps S495A/S509A): as the sequence (P51654 other isoform, or with tags, fused parts or gaps limits assumed) above
Experimental: The humanized H0L0 antibody and its point mutation-modified antibodies purified in (1) was evaluated by competitive ELISA. 100 μL of the soluble GPC3 core polypeptide (SEQ ID NO: 36) at 1 μg/mL was added to each well of a 96-well plate. The soluble GPC3 core polypeptide was immobilized on the plate by allowing the plate to stand overnight at 4° C. The soluble GPC3 core polypeptide immobilized on the plate was washed 3 times with a washing buffer using a Skan WASHER400 (Molecular Devices); and blocked with 200 μL blocking buffer at 4° C. for at least 30 min. The blocked plate on which soluble GPC3 core polypeptide was immobilized was then washed 3 times with washing buffer using the Skan WASHER400. Subsequently, each well of the plate received 200 μL of a mixture containing 100 μL of biotinylated humanized H0L0 antibody (final concentration=0.3 μg/mL) and 100 μL of the humanized H0L0 antibody or its point mutation-modified antibody (at various concentrations). The humanized H0L0 antibody was biotinylated using a Biotin Labeling Kit (Roche) according to the instructions provided with the kit. The plate was left stand for 1 hour at room temperature, then washed 5 times with washing buffer using the Skan WASHER400 (Molecular Devices). 100 μL goat anti-streptavidin alkaline phosphatase (ZYMED), diluted 20,000× with substrate buffer, was added to each well, and the resulting plate was left stand for 1 hour at room temperature, and then washed 5 times with washing buffer using the Skan WASHER400. Phosphatase Substrate (Sigma) was prepared at 1 mg/mL in the substrate buffer, added at 100 μL, per well for 1 hour. The absorbance at 405 nm of the reaction solution in each well was measured using a Benchmark Plus (BIO-RAD), with the control absorbance at 655 nm.
The binding activity to the antigen glypican 3 of each point mutation pI modified antibody was measured using the method described in Reference Example 3.

[7] = Tm of Fabs by VP-DSC, Reference Example 4; assay type: physicochemical; details: PBS, 20° C. to 115° C., about 4K/min
Experimental: The Tm values of Fabs obtained from Hd1.8Ld1.6 antibody and pH7pL16 antibody were measured with VP-DSC (Micro Cal) using the method similar to Reference Example 3. In this experiment, PBS was used as a dialysis solution, and the antibody concentration in the test solution for DSC measurement was adjusted to 25-100 μg/ml. DSC scanning was set from 20° C. to 115° C. at the scanning rate of about 4K/min, with the reference solution (dialysis solution) and DSC measurement test solution. The thermal denaturation midpoint temperature of the Fabs of the Hd1.8Ld1.6 antibody and pH7pL16 antibody was 77.5 and 74.7° C., respectively.

[8] = pI value by electrophoresis with PhastGel IEF 4-6.5, Reference Example 4; assay type: physicochemical; details: for pI value: PhastGel IEF 4-6.5
Experimental: The pI values of the Hd1.8Ld1.6 antibody and pH7pL16 antibody were measured by electrophoresis with PhastGel IEF 4-6.5 (GE Healthcase) using the method described in Reference Example 3 or similar method.

liver cancer cells = details: against liver cancer cells; see WO 2006/006693; cited from earlier work

Molecule: Synagis: example of existing antibodies
Tm value (thermal denaturation midpoint temperature) [1]: 85.4 °C

Molecule: CS(=O)(=O)CCNCc1ccc(-c2ccc3ncnc(Nc4ccc(OCc5cccc(F)c5)c(Cl)c4)c3c2)o1 [lapatinib]
rate of response (liver cancer): 0%
time to progression (liver cancer): 1.8 months

Molecule: CNC(=O)c1cc(Oc2ccc(NC(=O)Nc3ccc(Cl)c(C(F)(F)F)c3)cc2)ccn1 [Sorafenib, 4-[4-[[4-chloro-3-(trifluoromethyl)phenyl]carbamoylamino]phenoxy]-N-methylpyridine-2-carboxamide]
weight loss with Sorafenib alone [2]: further enhanced
tumor growth, single agent (HuH-7 xenograft): suppressed
weight loss with Sorafenib alone [3]: enhanced

binding result [4]: binds
B1: H15L4 antibody (antibody, V domains shown)
VH: QVQLVQSGAEVKKPGASVKVSCKASGYTFTDYEMHWIRQPPGQGLEWIGAIDPKTGDTAYSQKFKGRVTLTADKSTSTAYMELSSLTSEDTAVYYCTRFYSYTYWGQGTLVTVSS
VL: DIVMTQSPLSLPVTPGEPASISCRSSQSLVHSNRNTYLHWYQQKPGQAPRLLIYKVSNRFSGVPDRFSGSGSGTDFTLKISRVEAEDVGVYYCSQNTHVPPTFGQGTKLEIK

antigen binding activity compared with humanized H0L0 antibody [6]: about the same
B2: Hd1.8Ld1.6: antibody composed of Hspd1.8 (SEQ ID NO: 27) and Lspd1.6 (SEQ ID NO: 29), lowered pI (antibody, V domains shown)
VH: QVQLVQSGAEVKKPGASVTVSCKASGYTFTDYEMHWIRQPPGEGLEWIGAIDPKTGDTAYSQSFQDRVTLTADKSTSTAYMELSSLTSEDTAVYYCTRFYSYTYWGQGTLVTVSS
VL: DIVMTQSPLSLPVTPGEPASISCRASESLVHSNRNTYLHWYQQKPGQAPRLLIYKVSNRFSGVPDRFSGSGSGTDFTLTISSLQAEDVGVYYCSQNTHVPPTFGQGTKLEIK
modifications: Modified antibody
reduction of pI relative to humanized H0L0 antibody [5]: 1.5
pI value ([5]; isoelectric electrophoresis, Phast-Gel Dry IEF): 7.4
thermal denaturation midpoint temperature of the Fabs [7]: 77.5 °C
pI value [8]: 7.47

binding activity to glypican 3 compared with humanized H0L0 antibody ([6]; Reference Example 4): comparative
B3: pH7pL16: pI modified humanized anti-glypican 3 antibody, pH7 (SEQ ID NO:31) and pL16 (SEQ ID NO:33) (antibody, V domains shown)
VH: QVQLVQSGAEVKKPGASVTVSCKASGYTFTDYEMHWIRQPPGEGLEWIGAIDPKTGDTAYSESFQDRVTLTADKSTSTAYMELSSLTSEDTAVYYCTRFYSYTYWGQGTLVTVSS
VL: DIVMTQSPLSLPVTPGEPASISCQASESLVHSNRNTYLHWYLQKPGQSPQLLIYKVSNRFSGVPDRFSGSGSGTDFTLKISRVEAEDVGVYYCSQNTHVPPTFGQGTKVEIE
modifications: Modified antibody
thermal denaturation midpoint temperature of the Fabs [7]: 74.7 °C
pI lower than that of Hd1.8Ld1.6 antibody by [8]: 0.95
pI value [8]: 6.52

antigen binding activity compared with humanized H0L0 antibody [6]: about the same
B4: H15L4: antibody combining heavy chain H15 (SEQ ID NO: 34) and light chain L4 (SEQ ID NO: 35) (antibody, V domains shown)
VH: QVQLVQSGAEVKKPGASVKVSCKASGYTFTDYEMHWIRQPPGQGLEWIGAIDPKTGDTAYSQKFKGRVTLTADKSTSTAYMELSSLTSEDTAVYYCTRFYSYTYWGQGTLVTVSS
VL: DIVMTQSPLSLPVTPGEPASISCRSSQSLVHSNRNTYLHWYQQKPGQAPRLLIYKVSNRFSGVPDRFSGSGSGTDFTLKISRVEAEDVGVYYCSQNTHVPPTFGQGTKLEIK
modifications: Modified antibody

B5: hGC33: humanized anti-glypican 3 antibody, H chain variable region SEQ ID NO: 3, L chain SEQ ID NO: 4 (antibody, V domains shown)
VH: QVQLVQSGAEVKKPGASVKVSCKASGYTFTDYEMHWVRQAPGQGLEWMGALDPKTGDTAYSQKFKGRVTLTADKSTSTAYMELSSLTSEDTAVYYCTRFYSYTYWGQGTLVTVSS
VL: DVVMTQSPLSLPVTPGEPASISCRSSQSLVHSNGNTYLHWYLQKPGQSPQLLIYKVSNRFSGVPDRFSGSGSGTDFTLKISRVEAEDVGVYYCSQNTHVPPTFGQGTKLEIK
modifications: Modified antibody
tumor growth, single agent (HuH-7 xenograft): suppressed

binding result [4]: binds
B6: Hspd1.8Lspd1.6 (Hd1.8Ld1.6) antibody (antibody, V domains shown)
VH: QVQLVQSGAEVKKPGASVTVSCKASGYTFTDYEMHWIRQPPGEGLEWIGAIDPKTGDTAYSQSFQDRVTLTADKSTSTAYMELSSLTSEDTAVYYCTRFYSYTYWGQGTLVTVSS
VL: DIVMTQSPLSLPVTPGEPASISCRASESLVHSNRNTYLHWYQQKPGQAPRLLIYKVSNRFSGVPDRFSGSGSGTDFTLTISSLQAEDVGVYYCSQNTHVPPTFGQGTKLEIK

B7: GC33: Mouse anti-human glypican 3 monoclonal antibody, clone GC33, WO 2006/006693; variable regions SEQ ID NOs: 1 and 2 (antibody, V domains shown)
VH: QVQLQQSGAELVRPGASVKLSCKASGYTFTDYEMHWVKQTPVHGLKWIGALDPKTGDTAYSQKFKGKATLTADKSSSTAYMELRSLTSEDSAVYYCTRFYSYTYWGQGTLVTVSA
VL: DVVMTQTPLSLPVSLGDQASISCRSSQSLVHSNGNTYLHWYLQKPGQSPKLLIYKVSNRFSGVPDRFSGSGSGTDFTLKISRVEAEDLGVYFCSQNTHVPPTFGSGTKLEIK
modifications: Modified antibody
ADCC and CDC activities (liver cancer cells): greater
